Test [1] deals with T1, HER3 on HER3-expressing cancer cells (LIM1215, BT474) (UniProt P21860 20-1342, limits assumed).
T1 construct: whole, on cells; also called HER3-expressing LIM1215 cells; HER3-expressing BT474 cells
The test is described as follows: flow cytometry on HER3-expressing LIM1215 cells, PE anti-human Fc. In general terms: Flow cytometry measures light scatter and fluorescence of single cells or particles in a stream.

The target in test [2] is T1, HER3 on HER3-expressing cancer cells …. Description: flow cytometry on HER3-expressing BT474 cells, PE anti-human Fc.
Test [3] has as its target T2, CD3 on CD3-expressing Jurkat cells (human, UniProt P07766 23-207).
T2 construct: whole, on cells
The test is described as follows: flow cytometry on CD3-expressing Jurkat cells, PE anti-human Fc.

Test [4] addresses T1, HER3 on HER3-expressing cancer cells …. The test is described as follows: cell-based or functional assay.
Test [5] has the same target. The test is described as follows: cell-based or functional assay. This is another data set of the same source.
Test [6] addresses T3, His-tagged HER3 protein, extracellular domain (ECD) of HER3 (aa 21-643) (UniProt P21860 21-643).
T3 construct: range 21-643; also called HER3-His; not shown: His-tag
The test is described as follows: ELISA, immobilized HER3-His, anti-human Fc-HRP detection. For orientation: An ELISA detects its analyte on a solid surface through an enzyme-linked reagent.

The target of test [7] is T4, Flag-tagged FAP protein, extracellular domain of FAP (aa 32-728) (UniProt Q12884 32-728).
T4 construct: range 32-728; also called FAP-Flag; not shown: Flag-tag
Description: ELISA, immobilized FAP-Flag, anti-human Fc-HRP detection.

Test [8] addresses T5, mouse CD3 on murine spleenocytes (mouse, UniProt P22646 22-189).
T5 construct: whole, on cells; also called murine CD3-expressing murine spleenocytes; moCD3
Description: flow cytometry on murine spleenocytes (mouse CD3), PE anti-human Fc.

In test [9] the target is T6, FAP on FAP-expressing HT1080-FAP cells (UniProt Q12884 1-760, limits assumed).
T6 construct: whole, on cells
Description: flow cytometry on FAP-expressing HT1080-FAP cells, PE anti-human Fc.

T5 sequence (P22646 22-189): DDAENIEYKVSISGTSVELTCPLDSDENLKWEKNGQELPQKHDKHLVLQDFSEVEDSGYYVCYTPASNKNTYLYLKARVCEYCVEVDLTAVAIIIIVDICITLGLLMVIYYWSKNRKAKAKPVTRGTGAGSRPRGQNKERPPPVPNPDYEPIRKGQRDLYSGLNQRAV
T2 sequence (P07766 23-207): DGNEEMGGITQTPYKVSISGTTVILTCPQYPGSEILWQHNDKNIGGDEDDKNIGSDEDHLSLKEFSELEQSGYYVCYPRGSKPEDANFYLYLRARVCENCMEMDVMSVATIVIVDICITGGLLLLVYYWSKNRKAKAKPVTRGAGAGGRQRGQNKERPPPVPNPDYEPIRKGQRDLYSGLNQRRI

B1: bispecific, trivalent eIg-Fab3 targeting HER3 and CD3 (bispecific antibody)
light 1: QAGLTQPPAVSVAPGQTASITCGRDNIGSRSVHWYQQKPGQAPVLVVYDDSDRPAGIPERFSGSNYENTATLTISRVEAGDEADYYCQVWGITSDHVVFGGGTKLTVLGQPKAAPSVTLFPPSSEELQANKATLVCLISDFYPGAVTVAWKADSSPVKAGVETTTPSKQSNNKYAASSYLSLTPEQWKSHRSYSCQVTHEGSTVEKTVAPTECS
light 2: not shown
heavy 1: QVQLVQSGAEVKKPGSSVKVSCKASGGTFSGYTMNWVRQAPGQGLEWMGLINPYKGVSTYNGKFKDRVTITADKSTSTAYMELSSLRSEDTAVYYCARSGYYGDSDWYFDVWGQGTLVTVSSDFTPPTVKILQSSCDGGGHFPPTIQLLCLVSGYTPGTINITWLEDGQVMDVDLSTASTTQEGELASTQSELTLSQKHWLSDRTYTCQVTYQGHTFEDSTKKSADSNGGSGGGGSGGQVQLQQSGPGLVKPSQTLSLTCAISGDSVSSNRAAWNWIRQSPSRGLEWLGRTYYRSKWYNDYAQSLKSRITINPDTPKNQFSLQLNSVTPEDTAVYYCARDGQLGLDALDIWGQGTMVTVSSASTKGPSVFPLAPSSKSTSGGTAALGCLVKDYFPEPVTVSWNSGALTSGVHTFPAVLQSSGLYSLSSVVTVPSSSLGTQTYICNVNHKPSNTKVDKKVEPKSCGTDKTHTCPPCPAPPVAGPSVFLFPPKPKDTLMISRTPEVTCVVVDVSHEDPEVKFNWYVDGVEVHNAKTKPREEQYNSTYRVVSVLTVLHQDWLNGKEYKCKVSNKGLPSSIEKTISKAKGQPREPQVYTLPPCRDELTKNQVSLWCLVKGFYPSDIAVEWESNGQPENNYKTTPPVLDSDGSFFLYSKLTVDKSRWQQGNVFSCSVMHEALHNHYTQKSLSLSPGK
heavy 2: QVQLQQSGPGLVKPSQTLSLTCAISGDSVSSNRAAWNWIRQSPSRGLEWLGRTYYRSKWYNDYAQSLKSRITINPDTPKNQFSLQLNSVTPEDTAVYYCARDGQLGLDALDIWGQGTMVTVSSASTKGPSVFPLAPSSKSTSGGTAALGCLVKDYFPEPVTVSWNSGALTSGVHTFPAVLQSSGLYSLSSVVTVPSSSLGTQTYICNVNHKPSNTKVDKKVEPKSCGTDKTHTCPPCPAPPVAGPSVFLFPPKPKDTLMISRTPEVTCVVVDVSHEDPEVKFNWYVDGVEVHNAKTKPREEQYNSTYRVVSVLTVLHQDWLNGKEYKCKVSNKGLPSSIEKTISKAKGQPREPQVCTLPPSRDELTKNQVSLSCAVKGFYPSDIAVEWESNGQPENNYKTTPPVLDSDGSFFLVSKLTVDKSRWQQGNVFSCSVMHEALHNHYTQKSLSLSPGK
For orientation: EC50 means the concentration needed to bring the measured effect to its halfway point. A higher EC50 goes with a less potent agent. Turning to B1, the EC50 in test [1] was determined as 0.4 nM; in test [2], 0.2 nM; in test [3], 1.1 nM. For the same molecule, the “potency in cell killing relative to eIg-Fab4” value in test [4] is around 4 fold. In addition, the “EC50 value in cell killing (PBMC-mediated cytotoxicity on BT-474 cells, crystal violet)” value in [5] is 0.5 nM. Further, the “EC50 value in cell killing (PBMC-mediated cytotoxicity on LIM1215 cells, crystal violet)” value in test [5] was 0.4 nM.

B2: bivalent and bispecific eIg molecule targeting HER3 and FAP (bispecific antibody)
light 1: QAGLTQPPAVSVAPGQTASITCGRDNIGSRSVHWYQQKPGQAPVLVVYDDSDRPAGIPERFSGSNYENTATLTISRVEAGDEADYYCQVWGITSDHVVFGGGTKLTVLGQPKAAPSVTLFPPSSEELQANKATLVCLISDFYPGAVTVAWKADSSPVKAGVETTTPSKQSNNKYAASSYLSLTPEQWKSHRSYSCQVTHEGSTVEKTVAPTECS
heavy 1: not shown
light 2: DIQMTQSPSSLSASVGDRVTITCRASKSVSTSAYSYMHWYQQKPGKAPKLLIYLASNLESGVPSRFSGSGSGTDFTLTISSLQPEDFATYYCQHSRELPYTFGQGTKLEIKRDFTPPTVKILQSSSDGGGHFPPTIQLLCLVSGYTPGTIQITWLEDGQVMDVDLSTASTTQEGELASTQSELTLSQKHWLSDRTYTCQVTYQGHTFEDSTKKCADSN
heavy 2: not shown
notes: Four different polypeptide chains; one site for HER3, one for FAP; also called eIg antibody targeting HER3 and FAP
As for B2, the EC50 amounted to 3.4 nM in [6] and 7.6 nM in [7].

B3: bivalent and bispecific eIg molecule targeting FAP and mouse CD3, molecule I (bispecific antibody)
light 1: DIQMTQSPSSLSASVGDRVTITCRASKSVSTSAYSYMHWYQQKPGKAPKLLIYLASNLESGVPSRFSGSGSGTDFTLTISSLQPEDFATYYCQHSRELPYTFGQGTKLEIKRRTVAAPSVFIFPPSDEQLKSGTASVVCLLNNFYPREAKVQWKVDNALQSGNSQESVTEQDSKDSTYSLSSTLTLSKADYEKHKVYACEVTHQGLSSPVTKSFNRGEC
heavy 1: QVQLVQSGAEVKKPGASVKVSCKASGYTFTENIIHWVRQAPGQGLEWMGWFHPGSGSIKYNEKFKDRVTMTADTSTSTVYMELSSLRSEDTAVYYCARHGGTGRGAMDYWGQGTLVTVSSASTKGPSVFPLAPSSKSTSGGTAALGCLVKDYFPEPVTVSWNSGALTSGVHTFPAVLQSSGLYSLSSVVTVPSSSLGTQTYICNVNHKPSNTKVDKKVEPKSCGTDKTHTCPPCPAPPVAGPSVFLFPPKPKDTLMISRTPEVTCVVVDVSHEDPEVKFNWYVDGVEVHNAKTKPREEQYNSTYRVVSVLTVLHQDWLNGKEYKCKVSNKGLPSSIEKTISKAKGQPREPQVCTLPPSRDELTKNQVSLSCAVKGFYPSDIAVEWESNGQPENNYKTTPPVLDSDGSFFLVSKLTVDKSRWQQGNVFSCSVMHEALHNHYTQKSLSLSPGK
light 2: EVQLVESGGGLVQPGKSLKLSCEASGFTFSGYGMHWVRQAPGRGLESVAYITSSSINIKYADAVKGRFTVSRDNAKNLLFLQMNILKSEDTAMYYCARFDWDKNYWGQGTMVTVSSDFTPPTVKILQSSSDGGGHFPPTIQLLCLVSGYTPGTIQITWLEDGQVMDVDLSTASTTQEGELASTQSELTLSQKHWLSDRTYTCQVTYQGHTFEDSTKKCADSN
heavy 2: DIQMTQSPSSLPASLGDRVTINCQASQDISNYLNWYQQKPGKAPKLLIYYTNKLADGVPSRFSGSGSGRDSSFTISSLESEDIGSYYCQQYYNYPWTFGPGTKLEIKDFTPPTVKILQSSCDGGGHFPPTIQLLCLVSGYTPGTINITWLEDGQVMDVDLSTASTTQEGELASTQSELTLSQKHWLSDRTYTCQVTYQGHTFEDSTKKSADSNGTDKTHTCPPCPAPPVAGPSVFLFPPKPKDTLMISRTPEVTCVVVDVSHEDPEVKFNWYVDGVEVHNAKTKPREEQYNSTYRVVSVLTVLHQDWLNGKEYKCKVSNKGLPSSIEKTISKAKGQPREPQVYTLPPCRDELTKNQVSLWCLVKGFYPSDIAVEWESNGQPENNYKTTPPVLDSDGSFFLYSKLTVDKSRWQQGNVFSCSVMHEALHNHYTQKSLSLSPGK
notes: In molecule I the 2C11 VH sits on the 'light chain' and the VL on the Fc-bearing chain; also called eIg FAP × moCD3 I
As to B3, the figures for the EC50 in test [8] and in test [9] were 7.3 nM and 2.9 nM, respectively.

B4: bivalent and bispecific eIg molecule targeting FAP and mouse CD3, molecule II (bispecific antibody)
light 1: DIQMTQSPSSLSASVGDRVTITCRASKSVSTSAYSYMHWYQQKPGKAPKLLIYLASNLESGVPSRFSGSGSGTDFTLTISSLQPEDFATYYCQHSRELPYTFGQGTKLEIKRRTVAAPSVFIFPPSDEQLKSGTASVVCLLNNFYPREAKVQWKVDNALQSGNSQESVTEQDSKDSTYSLSSTLTLSKADYEKHKVYACEVTHQGLSSPVTKSFNRGEC
heavy 1: QVQLVQSGAEVKKPGASVKVSCKASGYTFTENIIHWVRQAPGQGLEWMGWFHPGSGSIKYNEKFKDRVTMTADTSTSTVYMELSSLRSEDTAVYYCARHGGTGRGAMDYWGQGTLVTVSSASTKGPSVFPLAPSSKSTSGGTAALGCLVKDYFPEPVTVSWNSGALTSGVHTFPAVLQSSGLYSLSSVVTVPSSSLGTQTYICNVNHKPSNTKVDKKVEPKSCGTDKTHTCPPCPAPPVAGPSVFLFPPKPKDTLMISRTPEVTCVVVDVSHEDPEVKFNWYVDGVEVHNAKTKPREEQYNSTYRVVSVLTVLHQDWLNGKEYKCKVSNKGLPSSIEKTISKAKGQPREPQVCTLPPSRDELTKNQVSLSCAVKGFYPSDIAVEWESNGQPENNYKTTPPVLDSDGSFFLVSKLTVDKSRWQQGNVFSCSVMHEALHNHYTQKSLSLSPGK
light 2: DIQMTQSPSSLPASLGDRVTINCQASQDISNYLNWYQQKPGKAPKLLIYYTNKLADGVPSRFSGSGSGRDSSFTISSLESEDIGSYYCQQYYNYPWTFGPGTKLEIKDFTPPTVKILQSSSDGGGHFPPTIQLLCLVSGYTPGTIQITWLEDGQVMDVDLSTASTTQEGELASTQSELTLSQKHWLSDRTYTCQVTYQGHTFEDSTKKCADSN
heavy 2: EVQLVESGGGLVQPGKSLKLSCEASGFTFSGYGMHWVRQAPGRGLESVAYITSSSINIKYADAVKGRFTVSRDNAKNLLFLQMNILKSEDTAMYYCARFDWDKNYWGQGTMVTVSSDFTPPTVKILQSSCDGGGHFPPTIQLLCLVSGYTPGTINITWLEDGQVMDVDLSTASTTQEGELASTQSELTLSQKHWLSDRTYTCQVTYQGHTFEDSTKKSADSNGTDKTHTCPPCPAPPVAGPSVFLFPPKPKDTLMISRTPEVTCVVVDVSHEDPEVKFNWYVDGVEVHNAKTKPREEQYNSTYRVVSVLTVLHQDWLNGKEYKCKVSNKGLPSSIEKTISKAKGQPREPQVYTLPPCRDELTKNQVSLWCLVKGFYPSDIAVEWESNGQPENNYKTTPPVLDSDGSFFLYSKLTVDKSRWQQGNVFSCSVMHEALHNHYTQKSLSLSPGK
notes: also called eIg FAP × moCD3 II; second molecule
Turning to B4, the EC50 came to 24.2 nM in test [8] and 2.7 nM in test [9].

Values taken from patent US20220372147A1 (UNIVERSIT T STUTTGART, published 2022).
